From the supplement of paper PMC9170038

These sequences were tested on K4 kissing-loop RNA reporter (assay: apparent KD of K4 kissing-loop reporter; higher = weaker reporter binding). Details: Eterna round: R107; input ligand: FMN 200 uM.
Procedure: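 RNA-MaP round R107: designed RNA switches with theophylline, tryptophan, arginine or FMN aptamers are transcribed on-chip within common flanks. They are titrated with a labelled K4 kissing-loop RNA reporter in RNA-MaP buffer (100 mM Tris pH 7.5, 80 mM KCl, 4 mM MgCl2), without ligand or with the indicated ligand. Median apparent KD per design.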
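Further: bound reporter read as fluorescence of individual clusters on recovered sequencing chips by microscopy, with normalized cluster intensities fitted with a binding model.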

Going from “CCAUCGCUAUUCGAUACCAGUCAAAAUAAAAUAAUAAAUCUGCAAAGGAGUGAUGUUCCAGACCCUUGGCAGCGAAUAGUGAUGG [Theophylline B K4 2]” to “GAGAUAGCGACGGCCGCCACUAGUGAUGUUAGUGCUGGUAGAUAGAUACUGGAACAGAAAUGACGUAGGACCGGGUCAGAUAGAG [#01 K4 Tryptophan B Exclusion]”, the “apparent KD of K4 kissing-loop reporter” value falls from 746 nM to 264 nM (2.8-fold).

First: CCGCCAUCGUCAGAUACCAGGCUGAUGGCGGUAACCGCCAAGCGAGUGAUGUUCGCAUCAGUCCCUUGGCAGCUGACGAAGACUG [#16 K4 Theophylline B Same State]
Second: UAAUUUAUCGCAGGAUAUAGCCAUAAACCGGUCCUAAGGGACCUUCUGGGCAGUGAUGUUGCCCGGCUAGAAGGGCGAGUUCACC [Anenlagema]
The “apparent KD of K4 kissing-loop reporter” value of the first is 1.5-fold higher: 176 nM for the first, 115 nM for the second.

First: ACUUGAGCACAAAGCACACCAAGCAGUAGGUAGGAUAUCCGGCUUAGGAGAAGGACCAUGCAGUGAUGUUGCAUGCUCCUCCAUG [Onraordi]
Second: UGACAUUGCUCAGAUACCAGACAAGAGGAUCACCCUUGUGCCAAACGUACAAUAAUAAUUGUCCCUUGGCAGCUGAGCAAUGUCU [TheoBX 14]
The “apparent KD of K4 kissing-loop reporter” value of the first is 3.6-fold higher: 267 nM for the first, 73.2 nM for the second.

“UUAUCAUCAGCGGCCGCCACUGCAAAUUGGAGUGAUGUUCCAAGCGUGGAUAUUGAAAUUACUAGUAGGACCGGGUUGAUGAAUU [AK 2 Ex Trypt B]” and “CUUAAGAUAUGAGUGAUGUUUAUGUCCGAAGGAGCGUGCGAAAGUACAGGUAGGUCGCGGAUGUGAGUGAUGUUCAUGUAAGCGA [KL-XArg-A13 #analogue]” are within 1.5-fold of each other in “apparent KD of K4 kissing-loop reporter” value: 158 nM for the first, 132 nM for the second.

First: UGAUAGGACAGAAGGAGCGGAAGUGAUGUUUCCAAAAGAUAUGGUCGACAAAGUCGACUUUUCCAGGUAGGUCGCUGUCCUAUCU [KL-XARG-B18]
Second: GGUGAUGAGCACGAUACCAGCCUCGGAGCCAGUGAUGUUGGCCCAAUUUAAAAUAAGAUAGGCCCUUGGCAGCGUGACGAUGGCU [Rainle]
The “apparent KD of K4 kissing-loop reporter” value of the first is 12-fold lower: 60.4 nM for the first, 727 nM for the second.

Going from “AGAAACUUGUAUGUCGAGUGUGCGCGCGAUACCAGCCAAAUGGAUGGCCCUUGGCAGCGCUGCGAGUGAUGUUCGCCCGCUUGAC [#18 K4 Theophylline A Exclusion]” to “GUUACGCAUGGAAGGAGCGCGAUAAUAUUAAGUGAGUGAUGUUCACAAAGAAAAUAAAUAACGCAGGUAGGUCGCCAUGUGUAAC [Ex Arginine B K4 4]”, the “apparent KD of K4 kissing-loop reporter” value falls from 210 nM to 79.3 nM (2.6-fold).

Going from “ACGUAGUUCUAGGAUACCAGCCAAGGUGCCAGGACAAAAGUCCUGGCAGUCAGUGAUGUUGGCCCUUGGCAGCCUAGAACUACGA [Omei KL Theo B Exc B v8]” to “AAGCAGUCACUCGAAGCCAUCGAAGAUGGACGAGGACCGGUACGGCCGCCACUCGGAGUGAUGUUCCGAAGACUGCAAAAUAAAA”, the “apparent KD of K4 kissing-loop reporter” value rises from 176 nM to 312 nM (1.8-fold).

Compared with “CCAUCGCUAUUCGAUACCAGUCAUCAAAUCUUUGGUUUGAUAAAGGAGUGAUGUUCCCAAGACCCUUGGCAGCGAAUAGUGAUGG [Theophylline B K4 10]”, “CAUAGACAAGUGAUGUUUGUCAUAACCGAAGGAGCGUCUUUAAAGACAGGUAGGUCGCGGAUUAAUUAAGUUAUGAUUCUUUUUA [JR_SSArginiA_Sub017]” is 2.5-fold higher in “apparent KD of K4 kissing-loop reporter” value: 252 nM for the first, 630 nM for the second.

Going from “UGAUAGGACAGAAGGAGCGGAGGUCGUCAAAGACGACCAAUAACGUUGAUAGGAGUGAUGUUCCAGGUAGGUCGCUGUCCUAUCU [ArgBX 29 #SwitchBubble #StaticStem]” to “AGACUACCACACUGUCAAUAGACAGUGAGCUAGGAUAUGCUGAUAAGCAGAAGGAGUGAUGUUCCUUGGUAGUCAAUAAAAUAAU [FmnAX 13 G29+U67]”, the “apparent KD of K4 kissing-loop reporter” value rises from 147 nM to 366 nM (2.5-fold).

Going from “UCCUGCAAUGGACCACGAAAGUGGAUCGAUACCAGAGUCGAAAGACUCCCUUGGCAGCGAGUGAUGUUCGAAGCAGGUAAAUAAA [#SwitchBubble 21 #K4Late]” to “ACGUGCACCAGUGAUGUUGGAAAAUAUGAAGGAGCGUGCGAAAGCACAGGUAGGUCGCAUAAUAGCACGAGCCACGAAAGUGGCA [#SwitchBubble 6 #K4Early #Sliding]”, the “apparent KD of K4 kissing-loop reporter” value falls from 492 nM to 131 nM (3.8-fold).

First: GGCCGGAAGGCGGCCGCCACUCAGUGAUGUUGUGUGAAAGAAAAGAAAAGAAGAAAGAAAAGAAAGAGGACCGGGCCAAACGGCC
Second: UACAAACGUAGUGAUGUUACGUACUCUGAUACCAGACAACUCUAAGUCCCUUGGCAGCAGUCAUUUUGCUUAUUAUUUUCUCAAA [JR_ExcTheophyA_Sub018]
The “apparent KD of K4 kissing-loop reporter” value of the first is 3-fold higher: 257 nM for the first, 86.5 nM for the second.

“CGAGUGAUGUUCGAAGAGUUGUUAAGCGAUACCAGCUAGGAAACUGGCCCUUGGCAGCGUAAUAAGUAAAUAAAUAAAUGAUCAC [whbob_Ex_Theo_A_th63]” and “UAAUAAAUUCCAGCGAUAUCGCUCUUCGAAGGAGCGGACGAAAGUCCAGGUAGGUCGCGAAGAGUGAUGUUCUUUGCGGCGCUGG [Omei KL Arginine A Exc A v4]” are within 1.5-fold of each other in “apparent KD of K4 kissing-loop reporter” value: 287 nM for the first, 207 nM for the second.

Going from “UUAAUUCCGGUGGUGUGUAGAACACAGUUACGAGGACCGGUACGGCCGCCACUCGGAUGCACUUUCAGUGAUGUUGAAAGCAUCA [Same State Tryptophan A GF 1]” to “UGACUGGACUGAAGGAGCGCUAAACUCCUAGUGAUGUUAGGAUAACGAGACAAAGUCUCGAAGCAGGUAGGUCGCAGUCUAGUCU”, the “apparent KD of K4 kissing-loop reporter” value falls from 670 nM to 149 nM (4.5-fold).

“UUAGAGAUCUCAGGAUAUCAGUGAUGUUGGUGUGCAGAUCUGAGAUAGAAUUCUAUCUCAGAUCAAUGAGAAGGGAGAUCUCAUU [AK5 Exc FMN B]” and “AAGUAGCUCUCGGCCGCCACUCCUCAGUGAUGUUGAGAUAUUAACUGCCAAUUGGCGUAUUUAAAGAGGACCGGGAGAGCUACAA [AK2 SS Tryptophan B]” are within 1.5-fold of each other in “apparent KD of K4 kissing-loop reporter” value: 303 nM for the first, 389 nM for the second.

First: UAAUUUAUGUCUUUAAUAUAAUAAUCAGAUACCAGUGAUUUAUGACACCCUUGGCAGCUGUAUAGAGUGAUGUUCUUAUGCUUAA [JR_ExcTheophyA_Sub011]
Second: GUUGAUCAUGGAAGGAGCGCCCAUUGUCGACACGAGUGAUGUUCGUGUCGUUGAUUACGAGGGCAGGUAGGUCGCCGUGUGCUUU [Rabele]
The “apparent KD of K4 kissing-loop reporter” value of the first is 1.7-fold higher: 247 nM for the first, 149 nM for the second.

First: GGCACUUUUGCUUGGAACCGUCAAGCUCUAUAGGAUAUGCCGAAAGGCAGAAGGAUGGACCUACAGAGUGAUGUUCUGCGUGCCU
Second: GAGAUAGAGGCGGCCGCCACUAGUGAUGUUAGUGAUGUUAGAUAGAGAAUAGAACAGAGGUAGGAUAGGACCGGGCCAGAUAGAG [whbob_SS_Tryp_B_w31]
The “apparent KD of K4 kissing-loop reporter” value of the first is 4.3-fold higher: 393 nM for the first, 90.6 nM for the second.

First: AGGCACGAGCAAGGAUAUCGAGUAGAGUGAUGUUCUGCCUGGGUUGGCGCGGAAGGGCCUUCCCAGCGAGAAGGUGCUCGUGCCU [#2 Same State - FMN A Attempt #10 (HarryS)]
Second: AUGUUGAGCGGAAGGAGCGGCUGAGCCAGUGAUGUUGGUUAAUCCAAGUGAUGUUGGAAAAGCCAGGUAGGUCGCCGCUUUACGU [whbob_SS_Arginine_B_2t144]
The “apparent KD of K4 kissing-loop reporter” value of the first is 3.4-fold lower: 293 nM for the first, 1010 nM for the second.

First: CGACACUCAGCGGCCGCCACUGAGCUAUAUUUUGCAGGUGCCCGAGUAAGUGAUGUUUACUUCGUCAGGACCGGGCUGGUUUCAA [theeternabot_sameState_KL_Trp_B_20]
Second: GCCGUAGAUUGAAGGAGCGUGGAACUAUGGCUUGAACAGUGAUGUUGUUUAUCUAGGUAGCCACAGGUAGGUCGCAAUCUACGGC
The “apparent KD of K4 kissing-loop reporter” value of the first is 1.9-fold higher: 514 nM for the first, 266 nM for the second.

First: UGACUGGAUGGAAGGAGCGCUAAACUCCUAGUGAUGUUAGGGACACGAGACAAAGUCUUGAGGCAGGUAGGUCGCCAUCUAGUCU [FiskerMod 8 - Jieux - Same State - Arginine B]
Second: UCGAGUUGACGAAGAGUCAACUCGUGUGAUACCAGUGACGAAAGUCACCCUUGGCAGCACUAUGCUAGUGAUGUUGGUAUUUAAG [#08 K4 Theophylline A Same State]
The “apparent KD of K4 kissing-loop reporter” value of the first is 2-fold higher: 379 nM for the first, 190 nM for the second.

“AGAUUCGACACGGCCGCCACUCGUGGUGGAUUACCGAGUGUCGAAGUUGAGUGAUGUUCAAGUACGAGGACCGGGUGUUGAGUCU [KL-XTryp-B9 #analogue]” and “AGGCACGAGCAAGGAUAUUGAGUAGAGUGAUGUUCUGCCUGGGUUGGCUCGCAAGAGCCUUCUCAGCGAGAAGGUGCUCGUGCCU [#2 Same State - FMN A Attempt #25 (HarryS)]” are within 1.5-fold of each other in “apparent KD of K4 kissing-loop reporter” value: 193 nM for the first, 286 nM for the second.

Going from “UGUCGGUGAAGAAUGUUAGUGAUGUUGGCACGAGGACCGGUACGGCCGCCACUCGGUAAUCAUCGCAAUUAUCGAUGGCGUAGCC [theeternabot_exclusion_KL_Trp_A_3]” to “AUUAAUUUCAGAGGAUAUCGUGAUUUUAUUUAAUUUAUUCAUUUGUGCAGUGAUGUUGCUAAUAUUCGAGAAGGCUGAUUUAUAA [whbob_Ex_FMNB__2th224]”, the “apparent KD of K4 kissing-loop reporter” value falls from 183 nM to 107 nM (1.7-fold).

“AUAACAAUCUGAAGGAGCGAGAAAGCAGUGAUGUUGCAAAGGCGAGUGAUGUUCGCAAUAACUCAGGUAGGUCGCAGAAACAAGA [Same State Arginine B]” was tested, and the “apparent KD of K4 kissing-loop reporter” value was 142 nM.

Same assay, conditions: Eterna round: R107; input ligand: arginine 13.2 mM

Going from “CCAUCGCUAUUCGAUACCAGUCAAAAUAAAAUAAUAAAUCUGCAAAGGAGUGAUGUUCCAGACCCUUGGCAGCGAAUAGUGAUGG [Theophylline B K4 2]” to “GAGAUAGCGACGGCCGCCACUAGUGAUGUUAGUGCUGGUAGAUAGAUACUGGAACAGAAAUGACGUAGGACCGGGUCAGAUAGAG [#01 K4 Tryptophan B Exclusion]”, the “apparent KD of K4 kissing-loop reporter” value falls from 552 nM to 233 nM (2.4-fold).

“CCGCCAUCGUCAGAUACCAGGCUGAUGGCGGUAACCGCCAAGCGAGUGAUGUUCGCAUCAGUCCCUUGGCAGCUGACGAAGACUG [#16 K4 Theophylline B Same State]” and “UAAUUUAUCGCAGGAUAUAGCCAUAAACCGGUCCUAAGGGACCUUCUGGGCAGUGAUGUUGCCCGGCUAGAAGGGCGAGUUCACC [Anenlagema]” are within 1.5-fold of each other in “apparent KD of K4 kissing-loop reporter” value: 86.9 nM for the first, 105 nM for the second.

First: ACUUGAGCACAAAGCACACCAAGCAGUAGGUAGGAUAUCCGGCUUAGGAGAAGGACCAUGCAGUGAUGUUGCAUGCUCCUCCAUG [Onraordi]
Second: UGACAUUGCUCAGAUACCAGACAAGAGGAUCACCCUUGUGCCAAACGUACAAUAAUAAUUGUCCCUUGGCAGCUGAGCAAUGUCU [TheoBX 14]
The “apparent KD of K4 kissing-loop reporter” value of the first is 3.7-fold higher: 94.7 nM for the first, 25.4 nM for the second.

First: UUAUCAUCAGCGGCCGCCACUGCAAAUUGGAGUGAUGUUCCAAGCGUGGAUAUUGAAAUUACUAGUAGGACCGGGUUGAUGAAUU [AK 2 Ex Trypt B]
Second: CUUAAGAUAUGAGUGAUGUUUAUGUCCGAAGGAGCGUGCGAAAGUACAGGUAGGUCGCGGAUGUGAGUGAUGUUCAUGUAAGCGA [KL-XArg-A13 #analogue]
The “apparent KD of K4 kissing-loop reporter” value of the first is 1.5-fold higher: 132 nM for the first, 87.9 nM for the second.

Compared with “UGAUAGGACAGAAGGAGCGGAAGUGAUGUUUCCAAAAGAUAUGGUCGACAAAGUCGACUUUUCCAGGUAGGUCGCUGUCCUAUCU [KL-XARG-B18]”, “GGUGAUGAGCACGAUACCAGCCUCGGAGCCAGUGAUGUUGGCCCAAUUUAAAAUAAGAUAGGCCCUUGGCAGCGUGACGAUGGCU [Rainle]” is 8.1-fold higher in “apparent KD of K4 kissing-loop reporter” value: 90.1 nM for the first, 727 nM for the second.
